Experimental findings from patent US20230250135A1 are described below.

Holding throughout (conditions): remark: other sources report otherwise
Experiment [1] has as its target UFV161453 (influenza A virus A/Hong Kong/1/68 (H3N2)).
Experiment [2] deals with UFV161333 (influenza A virus A/Hong Kong/1/68 (H3N2)). Nature of the experiment: Binding-AlphaLISA, Expi293F supernatant, normalized to UFV161686. (In Alpha technology, singlet oxygen from a donor bead excites a nearby acceptor bead.)
Experiment [3] addresses UFV161721 (influenza A virus A/Hong Kong/1/68 (H3N2)). Nature of the experiment: Binding-AlphaLISA, Expi293F supernatant, normalized to UFV161333.
Experiment [4] concerns the target UFV161715 (influenza A virus A/Hong Kong/1/68 (H3N2)). Described as above.

B1: CR9114 (antibody, V domains shown)
VH: QVQLVQSGAEVKKPGSSVKVSCKSSGGTSNNYAISWVRQAPGQGLDWMGGISPIFGSTAYAQKFQGRVTISADIFSNTAYMELNSLTSEDTAVYFCARHGNYYYYSGMDVWGQGTTVTVSS
VL: SYVLTQPPAVSGTPGQRVTISCSGSDSNIGRRSVNWYQQFPGTAPKLLIYSNDQRPSVVPDRFSGSKSGTSASLAISGLQSEDEAEYYCAAWDDSLKGAVFGGGTQLTVL
Consider B1, for which the binding relative to reference UFV161454 in experiment [1] is 61%. In experiment [2], this molecule gave a fold increase in binding relative to reference UFV161686 of 5 fold. The binding relative to reference UFV161333 in experiment [3] and in experiment [4] was 145% throughout.
